Measured values from publication PMC2817712, “Using Structural Information to Change the Phosphotransfer Specificity of a Two-Component Chemotaxis Signalling Complex” (PLoS Biology, 2010).
Numbering of substitutions follows the chain as printed. Numbers in names are those of the source.

B1: CheY6(M13S) with an engineered C-terminal biotinylation tag, for SPR surfaces (natural protein)
chain: PYNVMIVDDAASMRLYIASFIKTLPDFKVVAQAANGQEALDKLAAQPNVDLILLDIEMPVMDGMEFLRHAKLKTRAKICMLSSVAVSGSPHAARARELGADGVVAKPSGTVSHDLEEKTGGELARTMRTLMAA
modifications: biotin within the engineered C-terminal tag (enzymatic)
B2: CheY6(M13S,L16S,Y17M) with an engineered C-terminal biotinylation tag, for SPR surfaces (natural protein)
chain: B1 chain with L15S, Y16M
modifications: biotin within the engineered C-terminal tag (enzymatic)

Target: T1, CheA3P1, the isolated P1 (Hpt, histidine-containing phosphotransfer) domain of CheA3 (residues 1-135), … (R. sphaeroides)
T1 construct: Analyte in SPR and partner in the unphosphorylated crystal structure; also called Hpt domain of CheA3
Test: SPR; Biacore T100, 25°C; response regulator biotinylated in a C-terminal tag and held on streptavidin (200-1,500 RU); CheA3P1 injected at 120 nM to 2 mM; standard buffer (30 mM Hepes pH 7.5, 150 mM NaCl, 5 mM sodium acetate, 2 mM manganese chloride, 2 mM TCEP) with 0.05% Tween 20; equilibrium binding, 1:1 Langmuir model
Details: both partners purified

| Binder | Kd [µM] |
| --- | --- |
| B1 | > 1000 |
| B2 | > 1000 |
